Results: US20020165156A1 (Biogen, published 2002)

Biological target: T1, soluble flag-hBAFF (amino acids L83-L285) (human, UniProt Q9Y275 83-285)
T1 construct: range 83-285; also called FLAG-tagged human BAFF; not shown: FLAG tag
Experiment: plate assay, 0.5 ug/ml FLAG-hBAFF on pJST535-transfected 293EBNA cells, anti-FLAG M2 and alkaline phosphatase / fast red
Protocol: Full-length human BAFF-R was generated from BJAB polyA+RNA using the SuperscriptII preamplification kit (Life Technologies) to generate the cDNA template and amplified by Pfu1 using primers complementary to the 5′ and 3′ coding sequences of BAFF-R. The PCR product was cloned into CH269, a derivative of pCEP4 (Invitrogen). The resultant clone was termed pJST535. Human embryonic kidney cells containing the EBNA-1 gene (293EBNA) were seeded into 6 well plates coated with fibronectin and transfected by lipofectamine (Life Technologies) with either pJST535 at various dilutions or CH269 as a background control. At 48 hrs post transfection, transfected cells were assayed for their ability to bind soluble flag-hBAFF(amino acids L83-L285) as follows. All incubations were at room temperature. Conditioned media was aspirated from the wells and the cells washed with BHA buffer (20 mM HEPES pH7.0, 0.5mg/ml BSA, 0.1% NaN3) and incubated with 0.5 ug/ml FLAG-hBAFF diluted in PBS containing 1 mM MgCl2, 1 mM CaCl2 and 0.1% NaN3. After an 1 hr. incubation, the BAFF solution was removed and the cells were washed with BHA. The cells were next incubated for 30 min. in a PBS solution containing 1 ug/ml of the anti-FLAG monoclonal antibody, M2 (Sigma). This solution was aspirated and the cells were washed with BHA. […]

T1 sequence (Q9Y275 83-285 limits assumed): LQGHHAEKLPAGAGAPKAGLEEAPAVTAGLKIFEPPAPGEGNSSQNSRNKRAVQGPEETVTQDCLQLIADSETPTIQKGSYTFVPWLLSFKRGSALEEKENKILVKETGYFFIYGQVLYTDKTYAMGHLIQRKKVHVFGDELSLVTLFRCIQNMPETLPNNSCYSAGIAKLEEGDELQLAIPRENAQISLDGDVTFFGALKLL

B1: full-length human BAFF-R (BCMA) expressed on 293EBNA cells transfected with pJST535 (receptor)
chain: MLQMAGQCSQNEYFDSLLHACIPCQLRCSSNTPPLTCQRYCNASVTNSVKGTNAILWTCLGLSLIISLAVFVLMFLLRKISSEPLKDEFKNTGSGLLGMANIDLEKSRTGDEIILPRGLEYTVEECTCEDCIKSKPKVDSDHCFPLPAMEEGATILVTTKTNDYCKSLPAALSATEIEKSISAR
binding result: binds
